Laboratory results published in US20240239894A1, “THERAPEUTIC BINDING MOLECULES” (MedImmune Limited, priority 2020, published 2024).
Read-outs that look alike come from different tables or passages of the source.

T1: MurineB7-H4 (Mus musculus, UniProt Q7TSP5)
T1 construct: Mouse B7H4 ECD; FLAG (C); 10His (C); made in house
T1 sequence (Q7TSP5 25-257 limits assumed): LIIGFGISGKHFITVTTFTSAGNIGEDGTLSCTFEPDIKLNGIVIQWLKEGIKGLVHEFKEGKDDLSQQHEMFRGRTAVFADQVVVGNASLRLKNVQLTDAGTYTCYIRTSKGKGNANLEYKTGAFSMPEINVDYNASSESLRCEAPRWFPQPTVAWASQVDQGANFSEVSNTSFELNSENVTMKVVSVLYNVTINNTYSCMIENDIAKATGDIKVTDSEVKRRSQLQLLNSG

T2: HumanB7-H4 (Homo sapiens, UniProt Q7Z7D3)
T2 construct: Human B7H4 ECD; FLAG; 10His; made in house
T2 sequence (Q7Z7D3 25-259 limits assumed): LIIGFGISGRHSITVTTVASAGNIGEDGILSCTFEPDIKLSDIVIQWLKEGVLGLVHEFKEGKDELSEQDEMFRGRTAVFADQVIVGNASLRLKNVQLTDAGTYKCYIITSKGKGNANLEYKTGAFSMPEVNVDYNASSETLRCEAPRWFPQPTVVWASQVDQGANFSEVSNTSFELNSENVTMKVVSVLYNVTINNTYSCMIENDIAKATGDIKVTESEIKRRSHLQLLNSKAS

T3: recombinant mouse B7-H4 (Mus musculus, UniProt Q7TSP5)
T3 sequence (Q7TSP5 25-257): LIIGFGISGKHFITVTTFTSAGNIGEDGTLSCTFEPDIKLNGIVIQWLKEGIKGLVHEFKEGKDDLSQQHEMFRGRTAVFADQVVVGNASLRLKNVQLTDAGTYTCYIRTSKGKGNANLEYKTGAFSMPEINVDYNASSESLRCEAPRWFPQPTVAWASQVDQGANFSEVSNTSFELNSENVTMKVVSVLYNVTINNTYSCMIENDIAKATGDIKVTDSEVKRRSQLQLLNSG

T4: monomeric B7-H4-FLAG (Homo sapiens, UniProt Q7Z7D3)
T4 construct: 10His; made in house
T4 sequence (Q7Z7D3 25-259 limits assumed): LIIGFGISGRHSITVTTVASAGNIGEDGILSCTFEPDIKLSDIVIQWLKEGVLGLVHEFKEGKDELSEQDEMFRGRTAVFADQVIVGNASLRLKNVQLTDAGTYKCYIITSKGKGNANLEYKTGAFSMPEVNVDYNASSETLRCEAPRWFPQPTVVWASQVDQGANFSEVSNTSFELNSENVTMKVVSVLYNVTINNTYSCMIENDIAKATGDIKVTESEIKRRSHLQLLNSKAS


Experiments:
[1] = target: T1, MurineB7-H4; test: ForteBio Octet affinity; type: binding, murine
[2] = test system: transfected HEKs (full length B7-H4 vector); test: On-cell western; type: cell-based
Procedure: (§1) The on-cell western method was developed and used to run 5 exemplary antibody clones with the following cells: SKBR3, A549, OVCAR4 (all minus transfections with B7-H4 vector), CHO and HEK cells (plus and minus transfection with full length B7-H4 vector).
(§2) Cells were detached from T175 flasks using Accutase and counted. Transfection method used was essentially that stated in the Invitrogen Lipofectamine LTX protocol (high throughput protocol using the reverse transfection method). 100 μl of cells (4.5×10^4 per 100 μl) was added to 96 well plates containing the DNA-lipofectamine mix. Plates incubated at 37° C. for 18 hours and fixed using 10% buffered formalin overnight. Plates were blocked with Odyssey blocking buffer, incubated with appropriate primary antibodies overnight followed by washing and detection with the appropriate Odyssey secondary antibody.
(§3) Plates were air dried and scanned using the Odyssey Imager using the recommended scan levels provided by the manufacturer.

[3] = test system: transfected CHOs (full length B7-H4 vector); test: On-cell western; type: cell-based, Chinese hamster
Procedure: as §1, §2, §3

[4] = test system: B7-H4-SV (splice variant); test: ForteBio Octet affinity
[5] = target: T2, HumanB7-H4; test: ForteBio Octet affinity; type: binding
[6] = test system: OVCAR4 cells; test: On-cell western; type: cell-based, human
Procedure: as §1, §2, §3

[7] = test system: SKBR3, A549, OVCAR4, CHO and HEK cells; test: On-cell western, panel of cell types; type: cell-based; conditions: compared with control antibodies (lanes E, U, R, S)
Procedure: as §1, §2, §3

[8] = test system: B7-H4 from human (including a splice variant), cynomolgus macaque, mouse and rat; test: Clone ZY0EQD_E02 specificity ELISA; type: binding; conditions: Maia format mAbs
[9] = target: T3, recombinant mouse B7-H4; test: SPR affinity of Fab; type: binding
Procedure: The binding affinity of anti-B7-H4 antibody E02-INT Fab for recombinant human, cynomolgus monkey, and mouse B7-H4 variants were determined by surface plasmon resonance (SPR).

[10] = target: T4, monomeric B7-H4-FLAG; test: HTRF epitope binning; type: binding
Procedure: Epitope binning was performed in an HTRF assay format using the exemplary antibodies (IgG1-TM) conjugated with DyLight-649 binding to the monomeric B7-H4-FLAG LCD with detection with europium conjugated anti-FLAG antibody.
Bin 1 was defined with the ZY0EPQ-E02, ZY0EQD-E02 and ZY0E05-E07 antibodies fully inhibiting each other, and only partial inhibiting ZY0EP0-C07. Bin 2 was defined with the ZY0EOB-F05 antibody fully competing with all antibodies and all antibodies fully competing with it. Bin 3 was defined with ZY0EP0-C07 partially competing with antibodies ZY0EPQ-E02, ZY0EQD-E02 and ZY0E05-E07 (Bin 1).

Molecule | kdis ([1]; hIgG1 (n = 1)) | kon ([1]; hIgG1 (n = 1)) | kdis ([1]; hIgG1-TM (n = 4-7)) | kon ([1]; hIgG1-TM (n = 4-7)) | binding to transfected HEKs [2] | binding to transfected CHOs [3] | kdis ([4]; hIgG1 (n = 1)) | kon ([4]; hIgG1 (n = 1)) | kdis ([4]; hIgG1-TM (n = 4-7)) | kon ([4]; hIgG1-TM (n = 4-7)) | kdis ([5]; hIgG1 (n = 1)) | kon ([5]; hIgG1 (n = 1)) | kdis ([5]; hIgG1-TM (n = 4-7)) | kon ([5]; hIgG1-TM (n = 4-7)) | binding to OVCAR4 cells [6] | binding across cell types [7] | further results
ZY0EOB-F05: anti-B7-H4 antibody clone, VH SEQ ID NO: 35, VL SEQ ID NO: 36 (antibody, V domains shown) VH: QVQLQESGPGLVKPSQTLSLTCTVSDGSISSGGYYWSWIRQHPGKGLEWIGNIYYSGSTYYNPSLKSRVTISVDTSKNQFSLKLNSVTAADTAVYYCATEKALATVTPSGYENYYTVDVWGQGTTVTVSS VL: DIQLTQSPSFLSASVGDRVTITCWASQGISSYLAWYQQKPGKAPKLLIYAASTLQSGVPSRFSGSGSGTEFTLTISSLQPEDFATYYCQHLNSYPLTFGGGTKVEIK | 0.000493 s⁻¹ | 24900 M⁻¹ s⁻¹ | 0.000476 s⁻¹ | 18700 M⁻¹ s⁻¹ | good results | bind | 0.000598 s⁻¹ | 4710 M⁻¹ s⁻¹ | 0.000584 s⁻¹ | 3350 M⁻¹ s⁻¹ | 0.000362 s⁻¹ | 31000 M⁻¹ s⁻¹ | 0.000355 s⁻¹ | 26500 M⁻¹ s⁻¹ | bind |  | 
ZY0E05-E07: anti-B7-H4 antibody clone, VH SEQ ID NO: 37, VL SEQ ID NO: 38 (antibody, V domains shown) VH: QVQLQESGPGLVKPSQTLSLTCTVSGGSISSGGYYWSWIRQHPGKGLEWIGNIYYSGSTYYNPSLKSRVTISVDTSKNQFSLKLSSVTAADTAVYYCAREKALASVIPSGYENYYVVDVWGQGTTVTVSS VL: DIQLTQSPSFLSASVGGRVTITCWASQGIAGYLAWYQQKPGKAPKLLIYAASTLQSGVPSRFSGSGSGTEFTLTISSLQPEDFATYYCQHLNSYPLTFGGGTKVEIK | 0.000415 s⁻¹ | 17900 M⁻¹ s⁻¹ | 0.000361 s⁻¹ | 12100 M⁻¹ s⁻¹ | good results | bind | 0.000528 s⁻¹ | 2910 M⁻¹ s⁻¹ | 0.000499 s⁻¹ | 1890 M⁻¹ s⁻¹ | 0.000318 s⁻¹ | 21700 M⁻¹ s⁻¹ | 0.000338 s⁻¹ | 17100 M⁻¹ s⁻¹ | bind |  | 
ZY0EQD-E02: anti-B7-H4 antibody clone, VH SEQ ID NO: 33, VL SEQ ID NO: 34 (antibody, V domains shown) VH: QVQLQQWGAGLLKPSETLSLTCAVYGGSFSGYYWNWIRQPPGKGLEWIGEINHSGSTSYNPSLKSRVTISVDTSKNQFSLKLSSVTAADTAVYYCARVLYNWNVDSWGQGTLVTVSS VL: DIQMTQSPSSLSASVGDRVTITCRASQDIRNDVGWYQQKPGKAPKRLIYAASRLQSGVPSRFSGSGSGTEFTLTISSLQPEDFATYYCLQHNSYPRTFGQGTKVEIK | 0.213 s⁻¹ | 341000 M⁻¹ s⁻¹ | 0.126 s⁻¹ | 203000 M⁻¹ s⁻¹ |  |  | 0.00349 s⁻¹ | 4190 M⁻¹ s⁻¹ | 0.00269 s⁻¹ | 3360 M⁻¹ s⁻¹ | 0.00321 s⁻¹ | 216000 M⁻¹ s⁻¹ | 0.00278 s⁻¹ | 193000 M⁻¹ s⁻¹ | bind | bind a wide spectrum of cell types | binding profile to B7-H4 antigens [8]: binding to human, cynomolgus, mouse and rat B7-H4
E02-INT Fab: antigen binding fragment of anti-B7-H4 antibody E02-INT (antibody, V domains shown) VH: QVQLQQWGAGLLKPSETLSLACTVYGGSFSGYYWNWIRQPPGKGLEWIGEINHSGSTSYNPSLKSRVTISVDTSKNQFSLKLSSVTAADTAVYYCARVLYNWNVDSWGQGTLVTVSS VL: DIQMTQSPSSLSASVGDRVTITCRASQDIRNDVGWYQQKPGKAPKRLIYAASRLQSGVPSRFSGSGSGTEFTLTISSLQPEDFATYYCLQHNSYPRTFGQGTKVEIK |  |  |  |  |  |  |  |  |  |  |  |  |  |  |  |  | fold lower affinity for mouse than for human B7-H4 antigen [9]: approximately 100 fold
ZY0EPQ-E02: anti-B7-H4 antibody clone, VH SEQ ID NO: 31, VL SEQ ID NO: 32 (antibody, V domains shown) VH: QVQLQQWGAGLLKPSETLSLTCAVYGGSFSGYYWNWIRQPPGKGLEWIGEINHSGSTNYNPSLKSRVTILVDTSKNQFSLKLSSVTAADTAVYYCARNLYNWNLDSWGQGTLVTVSS VL: DIQMTQSPSSLSASVGDRVTITCRASQGIRNDLGWYQQKPGRAPKRLIYVASSLQSGVPSRFSGSGSGTEFTLTISSLQPEDFATYYCLQHNSYPRTFGQGTKVEIK | 0.0498 s⁻¹ | 100000 M⁻¹ s⁻¹ | 0.0304 s⁻¹ | 76700 M⁻¹ s⁻¹ |  |  | 0.00252 s⁻¹ | 2460 M⁻¹ s⁻¹ | 0.00229 s⁻¹ | 1380 M⁻¹ s⁻¹ | 0.00208 s⁻¹ | 85900 M⁻¹ s⁻¹ | 0.00182 s⁻¹ | 70900 M⁻¹ s⁻¹ | bind | bind a wide spectrum of cell types | 
ZY0EP0-C07: anti-B7-H4 antibody clone, VH SEQ ID NO: 39, VL SEQ ID NO: 40 (antibody, V domains shown) VH: QVQLVESGGVLVKPGGSLRLSCAASGFTLSDYYMSWIRQAPGMGLEWVSYISSSGSTIYYTDSVKGRFTISRDSAKNSLYLQMNSLRAEDTAVYYCARDGVGFDYWGQGTLVTVSS VL: EIVLTQSPGTLSLFPGERATLSCRASQSVSSSYLAWYQQKPGQSPRLLIYAASSRATGIPDRFSGSGSGTDFTLTISRLEPEDFAVYYCQQYGSSPLYTFGQGTKLEIK | 0.000551 s⁻¹ | 60200 M⁻¹ s⁻¹ | 0.000524 s⁻¹ | 43000 M⁻¹ s⁻¹ |  |  |  |  |  |  | 0.000363 s⁻¹ | 48800 M⁻¹ s⁻¹ | 0.000397 s⁻¹ | 41600 M⁻¹ s⁻¹ |  |  | Epitope Bin [10]: Bin 3; Epitope Bin ([10]; listed as ZY0EPO-C07): 3; KD (nM) ([4]; hIgG1 (n = 1)): No Binding; KD (nM) ([4]; hIgG1-TM (n = 4-7)): No Binding; Octet KD (nM) ([4]; summary Table 14): No Binding
